Assay results taken from publication PMC4722774, “Characterization of a cold-active esterase from Serratia sp. and improvement of thermostability by directed evolution” (BMC Biotechnology, 2016).

What was measured:
[1] = tested on: T1, CC(=O)Oc1ccc([N+](=O)[O-])cc1; assay: purified protein; type: biochemical, Serratia sp. HZ15; conditions: pH 8.5, 50 mM Tris-HCl, 10 °C, 0.01-0.3 mM substrate
T1 construct: full-length 302 residues, no signal peptide predicted; GST fusion (pGEX-6P-1) in E. coli BL21 (DE3), GST cut off by 3C protease; ~32 kDa

purified protein = substrate: CC(=O)Oc1ccc([N+](=O)[O-])cc1; assay: purified protein; type: biochemical, Serratia sp. HZ15; conditions: pH 8.5, 50 mM Tris-HCl, 10 °C, 0.01-0.3 mM substrate

Molecule | Km [1] [µM] | kcat [1] [s⁻¹] | kcat/Km [1] [M⁻¹ s⁻¹] | Km (purified protein) [µM] | kcat (purified protein) [s⁻¹] | kcat/Km (purified protein) [M⁻¹ s⁻¹]
EstS (Serratia sp. HZ15; A43V/D147N/R116W) | 87.59 ± 2.4 | 2500 | 2.86e+07 ± 3.7e+06 | – | – | –
EstS (Serratia sp. HZ15) (protein, full-length 302 residues, no signal peptide predicted; GST fusion (pGEX-6P-1) in E. coli BL21 (DE3), GST cut off by 3C protease; ~32 kDa) MPLDPQIARFLAEAAQAPAPASLSEMREVAHAGLLALQGEAEASGGVRDGWVTADDGRAIAIRAYTPGGATPGEPLPAMLYAHGGGWCLGSLALYDRPCQALANATGRVILSVDYRLAPEYPYPRPLEDVYQALCGVVERADEWGVDVARMAVGGDSAGGNLAAAVALLARDRKGPQIEHQLLLYPALSRAMDTASYKEYAQGYYLTREVMAFCWNTYLGEADKPQDPYAEPLHAPMLQRLPPATILSCEYDPLRDEAELYAKRLQEAGVAVRCERLPGMVHACIHMLGLTPAARVLFDKVG | – | – | – | 74.02 ± 1.9 | 2340 | 3.16e+07 ± 3.1e+06
